# Results reported in IntAct's records for PubMed 17069809.
# B1: Parabutoporin (Parabuthus schlechteri), P83312 (parent)
# chain: FKLGSFLKKAWKSKLAKKLRAKGKEMLKDYAKGLLEGGSEEVPGQ
# Variants of: B1
# Conditions: with kpca_human PRKCA
row,Variant,effect of a mutation on the interaction
1,FKLGAFLKKAWKAKLAKKLRAKGKEMLKDYAKGLLEGGSEEVPGQ,disrupting interaction
